The record followed here is US20140134155A1 (TECHNISCHE UNIVERSIT T DRESDEN, published 2014).

In experiment [1] the target is T1, prostate-specific stem cell antigen (PSCA) (human) (UniProt O43653).
T1 sequence (looked up): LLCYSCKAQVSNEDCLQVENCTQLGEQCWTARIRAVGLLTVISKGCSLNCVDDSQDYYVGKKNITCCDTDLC
In words: cell-based or functional assay.

Experiment [2] concerns the target T2, prostate-specific stem cell antigen (PSCA) (human, UniProt O43653 12-83).
T2 sequence (looked up): T1 sequence (looked up)
In words: cell-based or functional assay.

B1: murine bispecific scBsTaFv CD3-PSCA(MB1) (bispecific antibody, part only; not given: anti-CD3 scFv and tags, not shown: small tags and cut ends)
chain, part: VQLQESGGVLVQPGGSLKLSCAASGFTFSSYSMSWIRQTPDRRLEWVAYINDSGGSTFYPDTVKGRFSISRDNAKNTLYLQISRLRSGDTAIYYCSRRMYYGNSHWHFDVWGAGTTVTVSSGGGGSGGGGSGGGGSDIVMTQSTSSLSASLGDRVTINCGTSQDINNYLNWYQQKPDGSVKLLIYYTSRLHSGVPSRFSGSGSGTDYSLTISNLEQGDIATYFCQQSKTLPWTFGGGTKLELKRADAAPTVS
As to B1, in experiment [1], the antibody amount giving strong lysis of PSCA-positive cells (chrome release test) was less than 1 ng and the specific lysis of 51Cr-loaded PC3-PSCA tumor cells (chrome release test) is 80%.

B2: murine bispecific scBsTaFv CD3-PSCA(7F5) (bispecific antibody, part only; not given: anti-CD3 scFv, linkers, tags, part only)
chain, part: QVKLQESGGGLVQPGGSLKLSCVASGFTFSSYTMSWVRRTPEKRLEWVAYIHNGGGHTYYPDTIKGRFTISRDNAKNTLFLEMSSLKSEDTAMYYCTRRMYYGNSHWYFDVWGAGTSVTVSDIQMTQSPSSLSASVGDRVTITCRTSQDISNYLNWYQQKPGKAPKLLIYYTLKLNSGVPSRFSGSGSGTDFTFTISSLQPEDIATYYCQQSKTLPWTFGGGTKVEIK
For the molecule B2, the specific lysis of 51Cr-loaded PC3-PSCA tumor cells (chrome release test) in experiment [1] came to 60%.

B3: humanized bispecific scBsTaFv CD3-PSCA(MB1) (bispecific antibody)
chain: QVQLVQSGAEVKKPGASVKVSCKASGYTFTKYVIHWVRQAPGQGLEWMGYINPYNDVSKYNEKFRGRVTMTTDTSTSTAYMELRSLRSDDTAVYYCARNKDYYPMDYWGQGTTVTVSGGGGSGGGGSGGGGSEIVLTQSPATLSLSPGERATLSCSASSSVSYMHWYQQKPGQAPRLLIYDTSKLASGIPARFSGSGSGTDFTLTISSLEPEDFAVYYCQQWSSNPLTFGGGTKVEIKDIQMTQSPSSLSASVGDRVTITCGTSQDINNYLNWYQQKPGKVPKLLIYYTSRLHSGVPSRFSGSGSGTDFTLTISSLQPEDVATYYCQQSKTLPWTFGGGTQLTVLGGGGSGGGGSGASAAGGGGSGGGGSQVQLVESGGGLVKPGGSLRLSCAASGFTFSSYSMSWIRQAPGKGLEWVSYINDSGGSTFYPDTVKGRFTISRDNAKNSLYLQMNSLRAEDTAVYYCARRMYYGNSHWHFDVWGQGTTVTVSS
For the molecule B3, in experiment [2], the “specific lysis of 51Cr-loaded PC3-PSCA tumor cells (chrome release test, effector target ratio 10:1, 20 h)” value was greater than 90%.
